Laboratory results: PMC5339894, “G196 epitope tag system: a novel monoclonal antibody, G196, recognizes the small, soluble peptide DLVPR with high affinity” (Scientific Reports, 2017)

B1: mAb G196 [mouse] / biotin-SGSGSDLVPRG [modified: biotin on the N-terminus; biotin on the N-terminus] (parent complex)
chain 1: QVKLQESGAELVKPGASVKLSCKASGYTFTNYWMHWVKLRPGQGFEWIGEINPSNGGSNYNEKFKRKATLTVDKSSSTAYMQLSSLTSEDSAVFYCSIWDSYFDYWGQGTTLTVSSAKTTPPSVYPLAPGSAAQTNSMVTLGCLVKGYFPEPVTVTWNSGSLSSGVHTFPAVLQSDLYTLSSSVTVPSSPWPSETVTCNVAHPASSTKVDKKIVPRDC
chain 2: NIVMTQSPKSMSMSVGERVTLTCKASENVVTYVSWYQQKPEQSPKLLIYGASNRYTGVPDRFTGSGSATDFTLTISSVQAEDLADYHCGQGYSYPYTFGGGTKLEIKRADAAPTVSIFPPSSEQLTSGGASVVCFLNNFYPKDINVKWKIDGSERQNGVLNSWTDQDSKDSTYSMSSTLTLTKDEYERHNSYTCEATHKTSTSPIVKSFNRNEC
chain 3: SGSGSDLVPRG

Variants of: B1
Assay: permutation ELISA (densitometry of spots); parent: 1; read off a plot
In the case of chain 3 L7V, the ratio to parent is reported as about 0.11.
With chain 3 L7G the ratio to parent was about 0.04.
chain 3 L7W showed a ratio to parent of about 0.05.
chain 3 L7M was tested, and the ratio to parent was about 0.84.
Work on chain 3 L7S yielded a ratio to parent of about 0.06.
chain 3 L7Q showed a ratio to parent of about 0.07.
Variant chain 3 L7K has a ratio to parent of about 0.1.
In the case of chain 3 L7P, the ratio to parent is reported as about 0.02.
In the case of chain 3 L7E, the ratio to parent is reported as about 0.08.
chain 3 L7R gave a ratio to parent of about 0.13.
chain 3 L7I was tested, and the ratio to parent was about 0.99.
chain 3 L7H gave a ratio to parent of about 0.62.
For chain 3 L7Y, the ratio to parent was about 0.15.
chain 3 L7A showed a ratio to parent of about 0.08.
With chain 3 L7D the ratio to parent was about 0.11.
With chain 3 L7F the ratio to parent was about 0.72.
chain 3 L7N showed a ratio to parent of about 0.6.
chain 3 L7C gave a ratio to parent of about 0.06.
chain 3 L7T was tested, and the ratio to parent was about 0.11.
Work on chain 3 P9L yielded a ratio to parent of about 0.72.
Variant chain 3 P9K has a ratio to parent of about 0.4.
chain 3 P9N gave a ratio to parent of about 0.76.
Variant chain 3 P9F has a ratio to parent of about 0.86.
chain 3 P9A showed a ratio to parent of about 0.98.
Variant chain 3 P9E has a ratio to parent of about 0.86.
For chain 3 P9T, the ratio to parent was about 0.59.
chain 3 P9S gave a ratio to parent of about 0.81.
With chain 3 P9C the ratio to parent was about 0.78.
With chain 3 P9G the ratio to parent was about 0.67.
chain 3 P9M showed a ratio to parent of about 0.82.
chain 3 P9Q gave a ratio to parent of about 0.72.
Variant chain 3 P9Y has a ratio to parent of about 0.89.
With chain 3 P9W the ratio to parent was about 0.82.
In the case of chain 3 P9R, the ratio to parent is reported as about 0.74.
With chain 3 P9V the ratio to parent was about 0.87.
In the case of chain 3 P9I, the ratio to parent is reported as about 0.85.
In the case of chain 3 P9D, the ratio to parent is reported as about 0.78.
Work on chain 3 P9H yielded a ratio to parent of about 0.74.
chain 3 D6W was tested, and the ratio to parent was about 0.12.
chain 3 D6H gave a ratio to parent of about 0.15.
chain 3 D6E gave a ratio to parent of about 1.
chain 3 D6Y showed a ratio to parent of about 0.11.
Work on chain 3 D6V yielded a ratio to parent of about 0.04.
Work on chain 3 D6I yielded a ratio to parent of about 0.08.
For chain 3 D6L, the ratio to parent was about 0.06.
In the case of chain 3 D6Q, the ratio to parent is reported as about 0.48.
For chain 3 D6M, the ratio to parent was about 0.11.
chain 3 D6N showed a ratio to parent of about 0.25.
In the case of chain 3 D6K, the ratio to parent is reported as about 0.05.
In the case of chain 3 D6P, the ratio to parent is reported as about 0.16.
With chain 3 D6S the ratio to parent was about 0.95.
With chain 3 D6F the ratio to parent was about 0.09.
In the case of chain 3 D6A, the ratio to parent is reported as about 0.38.
chain 3 D6C showed a ratio to parent of about 0.26.
In the case of chain 3 D6T, the ratio to parent is reported as about 0.19.
In the case of chain 3 D6G, the ratio to parent is reported as about 0.7.
In the case of chain 3 D6R, the ratio to parent is reported as about 0.07.
chain 3 V8R showed a ratio to parent of about 0.07.
In the case of chain 3 V8C, the ratio to parent is reported as about 0.08.
Variant chain 3 V8I has a ratio to parent of about 0.96.
In the case of chain 3 V8F, the ratio to parent is reported as about 0.04.
Variant chain 3 V8T has a ratio to parent of about 0.95.
In the case of chain 3 V8Q, the ratio to parent is reported as about 0.16.
With chain 3 V8M the ratio to parent was about 0.09.
chain 3 V8L showed a ratio to parent of about 0.13.
With chain 3 V8E the ratio to parent was about 0.07.
chain 3 V8D was tested, and the ratio to parent was about 0.03.
In the case of chain 3 V8A, the ratio to parent is reported as about 0.82.
chain 3 V8S gave a ratio to parent of about 0.44.
For chain 3 V8G, the ratio to parent was about 0.03.
chain 3 V8W gave a ratio to parent of about 0.03.
chain 3 V8Y gave a ratio to parent of about 0.05.
With chain 3 V8H the ratio to parent was about 0.08.
chain 3 V8K was tested, and the ratio to parent was about 0.05.
chain 3 V8P gave a ratio to parent of about 0.04.
In the case of chain 3 V8N, the ratio to parent is reported as about 0.11.
With chain 3 R10H the ratio to parent was about 0.38.
